In patent publication US20240132624A1 (Ablynx, published 2024):
Numbering of substitutions follows the chain as printed.

B1: T026301081 (VHH, name in Kabat numbering)
VHH: EVQLVESGGGVVQPGGSLRLSCAASTFTFSSYAMYWVRQAPGKGLEWVSAISSGGGSTDYADSVKGRFTISRDNSKNTLYLQMNSLRPEDTALYYCAADTLYTSLTSYSYWGQGTLVTVSS
notes: tagless
B2: T026301109 (VHH, name in Kabat numbering)
VHH: B1 VHH with A33D, S53Q, S107W
notes: tagless
B3: T026301086 (VHH, name in Kabat numbering)
VHH: B1 VHH with T26G, S31E, A33D, S104D, S107W
notes: tagless
B4: T026301054 (VHH, name in Kabat numbering)
VHH: B1 VHH with S31E, S53Q, S104D, S107W
notes: tagless
B5: T026301085 (VHH, name in Kabat numbering)
VHH: B1 VHH with T26G, S53Q, S104D, S107W
notes: tagless
B6: T026301052 (VHH, name in Kabat numbering)
VHH: B1 VHH with S31E, A33D, S107W
notes: tagless
B7: T026301051 (VHH, name in Kabat numbering)
VHH: B1 VHH with T26G, A33D, S104D, S107W
notes: tagless
B8: T026301050 (VHH, name in Kabat numbering)
VHH: B1 VHH with S53Q, S104D, S107W
notes: tagless
B9: T026301083 (VHH, name in Kabat numbering)
VHH: B1 VHH with T26G, S31E, S53Q, S104D
notes: tagless
B10: T026301107 (VHH, name in Kabat numbering)
VHH: B1 VHH with A33D, S53Q
notes: tagless
B11: T026301060 (VHH, name in Kabat numbering)
VHH: B1 VHH with T26G, S31E, S104D
notes: tagless
B12: T026301110 (VHH, name in Kabat numbering)
VHH: B1 VHH with T26G, S31E, S53Q, S104D, S107W
notes: tagless
B13: T026301088 (VHH, name in Kabat numbering)
VHH: B1 VHH with T26G, A33D, S107K
notes: tagless
B14: T026301082 (VHH, name in Kabat numbering)
VHH: B1 VHH with S104D
notes: tagless
B15: T026301084 (VHH, name in Kabat numbering)
VHH: B1 VHH with T26G, S104D
notes: tagless
B16: T026301123 (VHH, name in Kabat numbering)
VHH: B1 VHH with A33D, S107W
notes: tagless
B17: T026301072 (VHH, name in Kabat numbering)
VHH: B1 VHH with T26G, A33D, S53Q, S104D
notes: tagless
B18: T026301090 (VHH, name in Kabat numbering)
VHH: B1 VHH with S53Q, S107K
notes: tagless
B19: T026301112 (VHH, name in Kabat numbering)
VHH: B1 VHH with T26G, S31E, A33D, S53Q, S107K
notes: tagless
B20: T026301071 (VHH, name in Kabat numbering)
VHH: B1 VHH with S31E, S104D
notes: tagless
B21: T026301078 (VHH, name in Kabat numbering)
VHH: B1 VHH with T26G, S31E, A33D, S53Q, S104D, S107W
notes: tagless
B22: T026301126 (VHH, name in Kabat numbering)
VHH: B1 VHH with S107K
notes: tagless
B23: T026301124 (VHH, name in Kabat numbering)
VHH: B1 VHH with S31E, S53Q, S107K
notes: tagless
B24: T026301127 (VHH, name in Kabat numbering)
VHH: B1 VHH with S31E, A33D
notes: tagless
B25: T026301096 (VHH, name in Kabat numbering)
VHH: B1 VHH with T26G, S53Q, S104D
notes: tagless
B26: T026301113 (VHH, name in Kabat numbering)
VHH: B1 VHH with T26G, S31E, S53Q, S107K
notes: tagless
B27: T026301094 (VHH, name in Kabat numbering)
VHH: B1 VHH with S31E, A33D, S53Q
notes: tagless
B28: T026301067 (VHH, name in Kabat numbering)
VHH: B1 VHH with A33D, S53Q, S107K
notes: tagless
B29: T026301097 (VHH, name in Kabat numbering)
VHH: B1 VHH with S31E, S53Q, S107W
notes: tagless
B30: T026301089 (VHH, name in Kabat numbering)
VHH: B1 VHH with T26G, S104D, S107K
notes: tagless
B31: T026301128 (VHH, name in Kabat numbering)
VHH: B1 VHH with T26G, S53Q, S104D, S107K
notes: tagless
B32: T026301059 (VHH, name in Kabat numbering)
VHH: B1 VHH with T26G, S31E, A33D, S53Q, S104D
notes: tagless
B33: T026301125 (VHH, name in Kabat numbering)
VHH: B1 VHH with T26G, S31E, S107K
notes: tagless
B34: T026301121 (VHH, name in Kabat numbering)
VHH: B1 VHH with S31E, A33D, S53Q, S107W
notes: tagless
B35: T026301074 (VHH, name in Kabat numbering)
VHH: B1 VHH with S31E, S104D, S107W
notes: tagless
B36: T026301049 (VHH, name in Kabat numbering)
VHH: B1 VHH with S31E, A33D, S104D, S107W
notes: tagless
B37: T026301053 (VHH, name in Kabat numbering)
VHH: B1 VHH with S31E, A33D, S107K
notes: tagless
B38: T026301058 (VHH, name in Kabat numbering)
VHH: B1 VHH with S31E, S53Q, S104D, S107K
notes: tagless
B39: T026301093 (VHH, name in Kabat numbering)
VHH: B1 VHH with A33D
notes: tagless
B40: T026301055 (VHH, name in Kabat numbering)
VHH: B1 VHH with A33D, S107K
notes: tagless
B41: T026301092 (VHH, name in Kabat numbering)
VHH: B1 VHH with T26G, A33D, S104D, S107K
notes: tagless
B42: T026301114 (VHH, name in Kabat numbering)
VHH: B1 VHH with S31E, S104D, S107K
notes: tagless
B43: T026301104 (VHH, name in Kabat numbering)
VHH: B1 VHH with T26G, S31E, S53Q, S104D, S107K
notes: tagless
B44: T026301101 (VHH, name in Kabat numbering)
VHH: B1 VHH with S104D, S107K
notes: tagless
B45: T026301118 (VHH, name in Kabat numbering)
VHH: B1 VHH with T26G, A33D, S104D
notes: tagless
B46: T026301068 (VHH, name in Kabat numbering)
VHH: B1 VHH with T26G, A33D, S53Q, S104D, S107K
notes: tagless
B47: T026301066 (VHH, name in Kabat numbering)
VHH: B1 VHH with T26G, S31E, S104D, S107K
notes: tagless
B48: T026301129 (VHH, name in Kabat numbering)
VHH: B1 VHH with T26G, S31E, A33D, S53Q, S104D, S107K
notes: tagless
B49: T026301116 (VHH, name in Kabat numbering)
VHH: B1 VHH with T26G, S31E, A33D, S104D, S107K
notes: tagless
B50: T026301056 (VHH, name in Kabat numbering)
VHH: B1 VHH with S31E, A33D, S53Q, S104D, S107K
notes: tagless
B51: T026301095 (VHH, name in Kabat numbering)
VHH: B1 VHH with T26G, S31E, A33D, S104D
notes: tagless
B52: T026301131 (VHH, name in Kabat numbering)
VHH: B1 VHH with A33D, S104D
notes: tagless
B53: T026301062 (VHH, name in Kabat numbering)
VHH: B1 VHH with A33D, S104D, S107W
notes: tagless
B54: T026301120 (VHH, name in Kabat numbering)
VHH: B1 VHH with S31E, A33D, S53Q, S104D
notes: tagless
B55: T026301106 (VHH, name in Kabat numbering)
VHH: B1 VHH with A33D, S53Q, S104D
notes: tagless
B56: T026301077 (VHH, name in Kabat numbering)
VHH: B1 VHH with S31E, A33D, S53Q, S107K
notes: tagless
B57: T026301108 (VHH, name in Kabat numbering)
VHH: B1 VHH with S31E, S53Q, S104D
notes: tagless
B58: T026301130 (VHH, name in Kabat numbering)
VHH: B1 VHH with S31E, A33D, S104D
notes: tagless
B59: T026301065 (VHH, name in Kabat numbering)
VHH: B1 VHH with S31E, A33D, S53Q, S104D, S107W
notes: tagless
B60: T026301115 (VHH, name in Kabat numbering)
VHH: B1 VHH with A33D, S104D, S107K
notes: tagless

Target: T1, human FcRn/b2M (human, UniProt P61769 21-119, biotinylated)
T1 construct: bought recombinant biotinylated protein (ACRO FCM-H82W4 or Immunitrack ITF01); also called hFcRn; hFcRn/hb2M
Test: SPR pH 6.0

Row | koff | Binder
1 | 0.0088 s⁻¹ | B1
2 | 0.0013 s⁻¹ | B2
3 | 0.013 s⁻¹ | B3
4 | 0.041 s⁻¹ | B4
5 | 0.0066 s⁻¹ | B5
6 | 0.0056 s⁻¹ | B6
7 | 0.012 s⁻¹ | B7
8 | 0.029 s⁻¹ | B8
9 | 0.067 s⁻¹ | B9
10 | 0.0045 s⁻¹ | B10
11 | 0.034 s⁻¹ | B11
12 | 0.014 s⁻¹ | B12
13 | 0.0093 s⁻¹ | B13
14 | 0.054 s⁻¹ | B14
15 | 0.021 s⁻¹ | B15
16 | 0.0054 s⁻¹ | B16
17 | 0.015 s⁻¹ | B17
18 | 0.033 s⁻¹ | B18

Row | koff | Binder
19 | 0.0072 s⁻¹ | B19
20 | 0.049 s⁻¹ | B20
21 | 0.0095 s⁻¹ | B21
22 | 0.01 s⁻¹ | B22
23 | 0.059 s⁻¹ | B23
24 | 0.0095 s⁻¹ | B24
25 | 0.034 s⁻¹ | B25
26 | 0.021 s⁻¹ | B26
27 | 0.01 s⁻¹ | B27
28 | 0.0061 s⁻¹ | B28
29 | 0.0067 s⁻¹ | B29
30 | 0.028 s⁻¹ | B30
31 | 0.032 s⁻¹ | B31
32 | 0.039 s⁻¹ | B32
33 | 0.0082 s⁻¹ | B33
34 | 0.0018 s⁻¹ | B34
35 | 0.013 s⁻¹ | B35

Target: T1, human FcRn/b2M
Test: SPR off-rate pH 6.0

Row | binding result | Binder
36 | no binding | B36
37 | no binding | B37
38 | no binding | B38
39 | no binding | B39
40 | no binding | B40
41 | no binding | B41
42 | no binding | B42
43 | no binding | B43
44 | no binding | B44
45 | no binding | B45
46 | no binding | B46
47 | no binding | B47
48 | no binding | B48
49 | no binding | B49
50 | no binding | B50
51 | no binding | B51
52 | no binding | B52
53 | no binding | B53
54 | no binding | B54
55 | no binding | B55
56 | no binding | B56
57 | no binding | B57
58 | no binding | B58
59 | no binding | B59
60 | no binding | B60
